From the DeepSol protein solubility set

Experiment: soluble on expression in E. coli; label from the status in PepcDB or PDB records
In the case of “MNASSEFTLQFESHAVRVQVDEAGTPWFNANDICTAVELLNPCAALAQHVGARNVSKRKIIDTIGRTQRANYLNEPGVLTLLIGSTKEAAKRLRRWLISEALPAAAVQKAGQHSVPQHHAPSISTPFQPTEDHTMNAITPFQFESHAVRTVVDDHGEVWFVGKDVADVLGYTNHNKALGDHCKGVPKRYPLQTPGGIQEIRIISEPDMLRLIVSSKLPAAERFERWVTSEVLPTIHKTGNRPALDHSTHSANAITPFQFESKDVRIQLDEASAPWFNANDVCSILEFGNPRQAIESHVDVEDVQKLDATDNLGRTRQTNHINESGLYALIMGSTKPAAKRFKRWVTSEVLPTLRKTGTYSTPGALPTLPGPTQDRIAALLLIGQYISTVPGVKPGIAAAATLACIKSNTNLTTEEIRRALPALRDPLCMLNATQLGKQLHCSAKAVNQLLASRGLQFRNERDDWELTEAGRVWGEAIPYSRNGHSSYQILWNPTVVDSLKVAA”, the “soluble on expression in E. coli” value is reported as “soluble”. With “MSLASSLHVLLEKIIKIGDLTVNSPGGSRTFGDGTGKKVVLNFTDEAAMQEIAADPALKLAEMYMEGRAKVAKGDIYDFLALVKGNTLSEALSFGMIWRGMARIIAARIKMRLPVNHNKSNVAHHYDLSAKLFDLFLDEDWQYSCAYFNPPDIGLYEAQVAKKRHIAAKLMTEPGQSVLEIGSGWGGMAMYIAESAGADVTGITLSEEQLRVSRDRAAKRGLAGNVRFELQDYRYLPASKKYDRIVSVGMFEHVGPTHYRDYFDKVAEVLDDKGVMVLHSIGQPYPALATNPFIEKYIFPGGYIPSLAEVLPAIQKSGLLVKDIEILPMHYAHTLRHWRERFVARKAEAVALYDERFFRMWEFYLAGSEMAFTHENFHIFQIQLAKDRDAVPHNRDYIAQNEAKLLEFEKTRPPLEKVSEGHHHHHH” the “soluble on expression in E. coli” value was “soluble”. In the case of “MRRTVRYILATSNPMGDLEALEKFVKLAPDTGADAIALIGNLMPKAAKSRDYAAFFRILSEAHLPTAYVPGPQDAPIWEYLREAANVELVHPEMRNVHETFTFWRGPYLVAGVGGEIADEGEPEEHEALRYPAWVAEYRLKALWELKDYPKIFLFHTMPYHKGLNEQGSHEVAHLIKTHNPLLVLVAGKGQKHEMLGASWVVVPGDLSEGEYSLLDLRARKLETGNVR”, the “soluble on expression in E. coli” value is reported as “soluble”. With “MSLIPDVSQALAWLEKHPQALKGIQRGLERETLRVNADGTLATTGHPEALGSALTHKWITTDFAEALLEFITPVDGDIQHMLTFMRDLHRYTARKLGDERMWPLSMPCYIAEGQDIELAQYGTSNTGRFKTLYREGLKNRYGALMQTISGVHYNFSLPMAFWQAKCGVTEGGSGKRKISAGYFRLIRNYYRFGWVIPYLFGASPAICSSFLQGKPTTLPFEKTDCGMYYLPYATSLRLSDLGYTNKSQSNLGITFNDLHEYVAGLKRAIKTPSEEYARIGVEKDGKRLQINSNVLQIENELYAPIRPKRVTRSGESPSDALLRGGIEYIEVRSLDINPFSPIGVDEQQVRFLDLFMVWCVLADAPEMSSDELLCTRTNWNRVILERRKPGLTLGIGCETAQFPLPKVGKDLFRDLKRVAQTLDSIHGGEEYQKVCDELVACFDNPELTFSARILRSMIDEGIGGTGKAFGEAYRNLLREEPLEILQEEEFIAERDASVRRQQEIEAADTEPFAAWLAKHAEGGSHHHHHH” the “soluble on expression in E. coli” value was “soluble”. For “MGSDKIHHHHHHMYSSAHSGSNESNLIAFPMAATSKTALLVQVDPFQSEVWSTALASQSITVIKEGADVDLSNMLGQMASAGLTLPDLIIVDMATEGMNPFAFCRFCREQHPSVKVLLTNSTQTQIAESEQRWAMSQGAQDLLPAFQTDSLLTDLLTALGRTSGVLGLPNLDQQALIQILPKLLEPKAEATETVALPAPSVAEPSVPPAPKAQRTYRGRPY”, the “soluble on expression in E. coli” value was “not soluble”. For “MSAPSRTVLRELTATKYVANYTDEYQLETARAGCSALPPQPNINHDAIIEGHGEDVELVEDKNYRSLHRIDETPKLVDKKPSKAIIRDEAVKVLRDIQTMPIENLRLKRYDFFSQRWFNTTRESEKALVEHVLLHPNQRPHYFAAQCRMLSAEDISSLILTSLLAEPKETGQNVVRFAIQAKTAMPFQQLFAILEKLEMEIEGFQMTDSFVVATLIRSQSKSTTTRRLRTTNCREYGNLEPGLDSQGRLMASTASITCSIRGKRHVETRIVYNNNSSARDPFRRYRYIELEQTVKCMNRRVQIVEEPVEFHEFEVENDMVSLRNGMVLVDDLISFLETFELDEE”, the “soluble on expression in E. coli” value was “not soluble”. For “MRLEIAEKYMAEAYEYLKKGDTIQASGKAYKVAEEIVKAIKFLISKLIGQDVGVISPYRTQVRKLDQELANYKPYVEVNTVDAFQGREKDVIIFSVTATNGLRFVTNRRRLNVAFTRPRYKLIVLGNENSIMSCQMTIC”, the “soluble on expression in E. coli” value was “soluble”. In the case of “MVLLLIVNKYWKVNDMKNEIQKNMDKYNPWHEDDFESYEDIARDVSLTTDKTFIEHYLLEVYSEENGHFDQENVHAMIEEIKNAI”, the “soluble on expression in E. coli” value is reported as “not soluble”. With “MGHHHHHHSHVLLFVYGEPVTRPHSGPAVYFWRHRKQADLDLARGDFAQAAQQLWLALRALGRPLPTSHLDLACSLLWNLIRHLLQRLWVGRWLAGRAGGLQQDCALRVDASASARDAALVYHKLHQLHTMGKHTGGHLTATNLALSALNLAECAGDAVSVATLAEIYVAAALRVKTSLPRALHFLTRFFLSSARQACLAQSGSVPPAMQWLCHPVGHRFFVDGDWSVLSTPWESLYSLAGNPVDPLAQVTQLFREHLLERALNCVTQPNPSPGSADGDKEFSDALGYLQLLNSCSDAAGAPAYSFSISSSMATTTGVDPVAKWWASLTAVVIHWLRRDEEAAERLCPLVEHLPRVLQESERPLPRAALHSFKAARALLGCAKAESGPASLTICEKASGYLQDSLATTPASSSIDKAVQLFLCDLLLVVRTSLWRQQQPPAP” the “soluble on expression in E. coli” value was “not soluble”. In the case of “MYGAVVVAGDHQRGAGVGMLRTRKLAQVAEINVVKSLDYLRLWHPILQNLRGRDFPTIELLLLRWRPARSAPPLSPPRTQDFENPWSPKSHRTALPWVFVFLSSRSRDRGPKNPTRAQWVPMNR”, the “soluble on expression in E. coli” value is reported as “not soluble”. For “MGSDKIHHHHHHMIRVLVLYFTRGGHTAKIASAIADQLKNRGAQVDLVDINSAAATRINWPDYQVVALGACVLYGTYDKTVFQFIEQHNQALSALPNSFFCVNVVARNPEKRIPENNKYLQKFIALSPWTPADLKIIAGKVDYPSWPWYDRLAIQLIMKMTKGPTDPKSVIDYTDWEDVKIYADHLLDLTEVTATT”, the “soluble on expression in E. coli” value was “not soluble”. With “MGSDKIHHHHHHMSELSQLSPQPLWDIFAKICSIPHPSYHEEALAAHILEWAKEKGIYAERDQVGNILLRKAATAGMENRKPVVLQAHLDMVPQKNNDTVHDFTTDPIQPYVDGEWLKARGTTLGADNGIGMASALAVLADPSVEHGPLEVLLTMTEEAGMDGAFGLQPNWLQGEILINTDSEEEGEIYMGCAGGIDFITRLPLVREVPPAGYQTLKLTIKGLKGGHSGGDIHLGLGNANKLLARFLFEQAEALDIRILDLNGGTLRNAIPREAFATLSLPAANVEQLKTLSQDYLAVLKNELSAVEKNLTVLVEANDSNEHPLTQDSRDRLLGLLNATPNGVIRMSDDVKGVVETSLNLGVVTMEDDHAEIICLIRSLIDSGKDAVVGTLTALGQLAGAKTSPKGGYPGWQPDAHSPVMALVRETYQKQFNKTPNIMVIHAGLECGLFKKPYPDMDMVSIGPTITGPHSPDEQVHIGSVDLYWKLLTELLKAIPPRA” the “soluble on expression in E. coli” value was “not soluble”. With “MIAIVAGNSAGVSRVANQPLEHEPSYWAATAEIEQPSPALEHDLDVDVAIIGAGYTGLSTAYHLKKDHGITATVVEANRIGWGCSGRNGGFAMIGVGKDTYNAWISKVGLEQARKTFEFGRDAVRTLRTVLQENNINAASGNEGFLLTAHRRARISELIETQRQLKHYFGFDTEYLDAHDVRTHYLSGTQIFGALHYPEHFPIHPMRYAQGLGRRVRQLGVPIYENSPVNTWRRAGRLHELLTPRGVVRAKKVVIATNGYTPDGLHPIVRGRLMNVLSNIVVTAPLSEGQLAATRWQTHKMVVDTRNLRSYFRLLEDNRIMFGARGGISDTAASRATMKAWLLTQLAKQFPGLGAIGADYFWQGWVAIPRDKGPHIHVADNGSVAYWLGCTGTGVAMSTHAGKLLADSLATERRPDVPALVGAPLPRYEIPALRKLYQRAAYSYFYLKDEFLLEHHHHHH” the “soluble on expression in E. coli” value was “not soluble”. For “MSLLQTKDYEFWFVTGSQHLYGEETLELVDQHAKSICEGLSGISSRYKITHKPVVTSPETIRELLREAEYSETCAGIITWMHTFSPAKMWIEGLSSYQKPLMHLHTQYNRDIPWGTIDMDFMNSNQSAHGDREYGYINSRMGLSRKVIAGYWDDEEVKKEMSQWMDTAAALNESRHIKVARFGDNMRHVAVTDGDKVGAHIQFGWQVDGYGIGDLVEVMDRITDDEVDTLYAEYDRLYVISEETKRDEAKVASIKEQAKIELGLTAFLEQGGYTAFTTSFEVLHGMKQLPGLAVQRLMEKGYGFAGEGDWKTAALVRMMKIMAKGKRTSFMEDYTYHFEPGNEMILGSHMLEVCPTVALDQPKIEVHSLSIGGKEDPARLVFNGISGSAIQASIVDIGGRFRLVLNEVNGQEIEKDMPNLPVARVLWKPEPSLKTAAEAWILAGGAHHTCLSYELTAEQMLDWAEMAGIESVLISRDTTIHKLKHELKWNEALYRLQKEGHHHHHH”, the “soluble on expression in E. coli” value was “soluble”. With “GSSGSSGVSSQETQGGPLAPMTGTIEKVFVKAGDKVKAGDSLMVMIAMKMEHTIKSPKDGTVKKVFYREGAQANRHTPLVEFEEEESDKRESESGPSSG” the “soluble on expression in E. coli” value was “soluble”. For “MSSHHHHHHMQFDVTIEIPKGQRNKYEVDHETGRVRLDRYLYTPMAYPTDYGFIEDTLGDDGDPLDALVLLPQPVFPGVLVAARPVGMFRMVDEHGGDDKVLCVPAGDPRWDHVQDIGDVPAFELDAIKHFFVHYKDLEPGKFVKAADWVDRAEAEAEVQRSVERFKAGTH”, the “soluble on expression in E. coli” value was “soluble”. With “METIKIGVVGLGTVGTGVVKMLQAHQEKISEITGRKLELACVVVHNLKKHEQVDLGDVQMTDQIATLLDDPSIQIMVEVMGSIHPAKEYITQALQAGKHVVTANKDLIAQYGRELVQIARENHRDLFYEASVAGGIPILRTIDNSFAADRIQRVMGIVNGTTNYIMTQM” the “soluble on expression in E. coli” value was “not soluble”. In the case of “MGQDQTKKQIEKGLQLYQSNQTEKALQVWTKVLEKSSDLMGRFRVLGCLVTAHSEMGRYKEMLKFAVVQIDTARELEDADFLLESYLNLARSNEKLCEFHKTISYCKTCLGLPGTRAGAQLGGQVSLSMGNAFLGLSVFQKALESFEKALRYAHNNDDAMLECRVCCSLGSFYAQVKDYEKALFFPCKAAELVNNYGKGWSLKYRAMSQYHMAVAYRLLGRLGSAMECCEESMKIALQHGDRPLQALCLLCFADIHRSRGDLELSQLKLHCLSESIYRSKGLQRELRAHVVRFHECVEETELYCGLCGESIGEKNSRLQALPCSHIFHLRCLQNNGTRSCPNCRRSSMKPGFV”, the “soluble on expression in E. coli” value is reported as “soluble”. For “MGSDKIHHHHHHMMIKDLKAHYQLLYAQSGDSPAAVQYPTHDSQVVRFSILSHGIDKTCNIIDLGCGLADMLPYLRQNGFTGKYLGCDFVPEFIELAKGKYGEDLNAKFMEFNILQDEIPTGYDYVLISGIFNNKIKNNQEFIELALKESMAKVNIGVVFNALSDYVQYQDETLFYISPLSLFDYCKRNITPYVTLKHDYLTKPGGFPYEFTMSLRHKEAS”, the “soluble on expression in E. coli” value was “not soluble”. In the case of “MDPTDLSFSPDEINKLIETGLNTVEYFTSQQVTGTSSLGKNTIPPGVTGLLTNAAEAKIQESTNHQKGSVGGGAKPKKPRPKIAIVPADDKTVPGKPIPNPLLGLDSTPSTQTVLDLSGKTLPSGSYKGVKLAKFGKENLMTRFIEEPRENPIATSSPIDFKRGRDTGGFHRREYSIGWVGDEVKVTEWCNPSCSPITAAARRFECTCHQCPVTCSECERDT”, the “soluble on expression in E. coli” value is reported as “soluble”.
